According to patent US6962971B2, “Chemokines and methods for inducing the differentiation of fibroblasts to myofibroblasts” (The Regents of the University of California, priority 2001, dated 2005):
Entries after “also recorded” stand apart in the source; their conditions may differ.

Columns and labels:
[1] = system: primary chicken embryonic connective tissue fibroblasts; assay: Acridine orange/ethidium bromide staining for apoptotic cells; assay type: cell-based; settings: cCAF-treated fibroblasts
Protocol: Plates of fibroblasts treated with cCAF as described above were rinsed twice with PBS and incubated in 0.1 mg/ml acridine orange/ethidium bromide in PBS for 1 min. After rinsing twice with PBS and adding a cover slip, the cells were immediately viewed by epifluorescence microscopy and random fields were photographed. The number of cells with blebbing cytoplasm and fragmented nuclei were counted from the entire field of each photograph.

CEFs = assay: Trypan blue staining for necrotic cells; assay type: cell-based; settings: cCAF-treated fibroblasts
Protocol: The supernatant of treated and untreated CEFs was collected, the cells centrifuged to a pellet and resuspended in a small volume of medium. 1% trypan blue was added to a final concentration of 0.5% trypan blue. Cells were stained for 5min and then counted in a hemocytometer. Necrotic cells stained blue.

α-SMA = assay: Immunostaining for α-SMA in fibroblast cultures and collagen gel sections; assay type: cell-based, chicken
Protocol: Plates of fibroblasts were treated with cCAF as described previously. After 4 days, the cells were rinsed with PBS, fixed in 4% paraformaldehyde, permeabilized with 0.15% Triton X-100 and incubated with PBS containing 0.1M glycine for 10 min. Cells were blocked for 30 min with 10% goat serum in PBS, incubated with mouse anti-α-SMA, to a final IgG concentration of 20 μg/ml, in 1% BSA/PBS for 1hr at room temperature (RT), and washed three times with 0.1% BSA/PBS for 10 min each. The cells were then incubated in goat anti-mouse FITC or sheep anti-mouse Texas Red (1:100) in 1% BSA/PBS for 1 hr at RT, washed three times for 10 min with 0.1% BSA in PBS and mounted with Vectashield. Collagen gels were rinsed with PBS, fixed in 4% paraformaldehyde for 2 hr, washed three times 30 min each with PBS, and incubated for an additional 30 min in PBS containing 0.1M glycine. This treatment was followed by incubation at 4° C. overnight in 15% sucrose and then incubated under the same conditions in 30% sucrose. After a brief rinse with PBS, the gels were frozen in OCT, sections prepared and collected on gelatin-coated slides, rinsed with PBS, fixed in 4% paraformaldehyde for 10 min, and then incubated again in PBS containing 0.1M glycine for 10 min. This was followed by blocking for 30 min with 10% goat serum in PBS, incubation in primary and secondary antibody as described above, and mounting with Vectashield.

α-SMA mRNA = assay: RT-PCR for α-SMA mRNA in fibroblasts; assay type: cell-based, chicken
Protocol: Total RNA for α-SMA was extracted using TRIzol reagent from untreated fibroblasts, fibroblasts treated with 750 ng/ml cCAF or fibroblasts treated for varying periods of time with cCAF. The RT-PCR procedure was performed using the Promega Access RT-PCR System, which is designed to finish reverse transcription (RT) and polymerase chain reaction (PCR) in one tube, and following the protocol recommended by Promega, except that 1.5 times the recommended amount of dNTP, reverse transcriptase and Tfl DNA polymerase were used to ensure strong synthesis of 18S ribosomal RNA. The reaction conditions included: 1 μg total RNA, first strand synthesis at 48° C. for 45 min, then 95° C. for 5 min to inactivate the reverse transcriptase, followed by DNA amplification at 95° C. for 45 sec, 58° C. for 60 sec, 68° C. for 90 sec for 40 cycles. Finally, 68° C. for 7 min to extent the strands. 2 μl of Quantum mRNA classic 18S primers (Ambion) were added to reaction to produce the control band. The followin primers used for the amplification of α-SMA: […]
RT-PCR products were analyzed by electrophoresis in 1.5% agarose and the density of the bands was measured by densitometry using Glyko BandScan.

[2] = system: Full-thickness excision wounds on the underside of the wings of 2-week-old chicks; assay: Wounding experiment: closure of excision wounds; assay type: in vivo, chicken; settings: 1 μg every other day
Protocol: Full-thickness excision wounds (approximately 0.5×0.5 cm) were made, using a scalpel blade, on the underside of the wings of 2-week-old chicks. The left wing was treated with vehicle alone (water), and the right wing with […] cCAF [90 nM]. The wounds were photographed immediately after wounding and then covered with Biocclusive bandage. 50 μl vehicle (water) or cCAF was deposited through the bandage onto the wound using a 30-gauge needle. This procedure was repeated the next day and every other day thereafter. On days 3, 5 and 7, the bandages were removed and the wounds were photographed before replacing the bandages and applying the treatment again.

[3] = system: granulation tissue of excision wounds; assay: Histology of excision wounds (Masson Trichrome); assay type: in vivo, chicken; settings: 1 μg cCAF every other day; versus vehicle
Protocol: At the specified time points, chickens were euthanized with sodium pentobarbitol. The wounded wings were collected and fixed for 18 hrs in 4% paraformaldehyde and decalcified for 3 days in 5% formic acid, 2.5% formaldehyde at 4° C. The tissue was embedded in paraffin and sectioned. Sections were stained with Masson Trichrome to visualize interstitial collagen. Other sections were immunolabeled for α-SMA. Sections were deparaffinized with 3×15 min washes in Hemo-De and rehydrated in 5 min washes of ethanol (100%, 95%, 70%, 50%, 30%). After rinsing with PBS, sections were fixed in 2% paraformaldehyde 1 hr. General autofluoresence and non-specific staining were blocked by 30 min in 0.1M glycine in PBS, followed by 30 min in 1% Evans Blue in PBS to quench red blood cell autofluorescence. Sections were incubated with α-SMA antibody in 1% BSA in PBS (1:50) for 2 hr at room temperature. After 3×10 min washes in 0.1% BSA in PBS, the sections were incubated for 40 min with anti-mouse Alexa antibody in 1% BSA in PBS (1:200). They were then washed and mounted with Vectashield.

[4] = system: chicken CXC receptor 1 (CXCR1); assay: Chicken cCXCR1-mediated calcium release; assay type: cell-based; settings: 400 ng
Protocol: NIH #373 cells overexpressing the chicken CXC receptor 1 (CXCR1) were exposed to the full-length cCAF molecule, the 15-amino N-terminal peptide of cCAF, or the 28-amino acid C-terminal peptide and calcium release was then measured.

[5] = system: chicken chorioallantoic membrane (CAM); settings: cited from earlier work

B1: cCAF: CXC chemokine chicken Chemotactic and Angiogenic Factor, full-length, SEQ ID NO:2; purified or synthesized (protein)
chain: LSQGRTLVKMGNELRCQCISTHSKFIHPKSIQDVKLTPSGPHCKNVEIIATLKDGREVCLDPTAPWVQLIVKALMAKAQLNSDAPL
modifications: Gallusgallus
notes: purified or synthesized
apoptotic morphology (cytoplasmic blebbing, nuclear fragmentation) [1]: do not show the characteristics of apoptotic cells; also recorded: compact cytoplasm and an intact nucleus characteristic of healthy cells
necrotic cell death (CEFs): does not stimulate cell necrosis; also recorded: does not cause cells to undergo necrosis
α-SMA immunolabeling of sections of fibroblast-seeded collagen gels (α-SMA; versus control gels): more cells with fibers staining for α-SMA than control gels
α-SMA immunolabeling of cultured fibroblasts (α-SMA; versus untreated control cells): more fibroblasts are stained for α-SMA; also recorded: many more cells showing intense staining for fiber bundles
time by which α-SMA mRNA drops below control levels (α-SMA mRNA; 750 ng/ml cCAF): ≤ 24 h
time to increase in α-SMA mRNA levels (α-SMA mRNA; 750 ng/ml cCAF): ≤ 1 h
time α-SMA mRNA levels remain elevated after treatment (α-SMA mRNA; 750 ng/ml cCAF): up to 12 hr
period with increasing amounts of α-SMA mRNA relative to control (α-SMA mRNA; after initiation of treatment, normalized to 18S rRNA): 1 to 12 h
wound closure at day 3 (days 0-3) ([2]; topical, versus vehicle (H2O) on contralateral wing): closed to a significantly greater degree than the vehicle-treated wounds
wound closure at day 5 ([2]; versus vehicle): closure of the control wounds was still less than that of the experimental wounds
wound closure at day 7 ([2]; versus vehicle): completely closed
density of granulation tissue, days 3 and 5 [3]: denser repair tissue than the control wounds; also recorded: appears more dense earlier in wound healing
granulation tissue at day 7 [3]: minimal; also recorded: appear to be already remodeling
time to calcium release [4]: ≤ 1 min
calcium release ([4]; NIH #373 cells overexpressing chicken CXCR1): induced a rapid (within 1 min.) release of calcium
angiogenesis in the CAM ([5]; high concentrations, in the absence of leukocyte chemotaxis): stimulates blood vessel sprouting from the preexisting vessels of the CAM
leukocyte chemotaxis in the CAM ([5]; low doses): chemotactic for monocyte/macrophages and lymphocytes
